Target: SARS-CoV-2 (2019-nCoV) spike (S) protein RBD-His recombinant protein (SARS-CoV-2, UniProt P0DTC2)
Assay: FRET or BRET

IEEQAKTFLDKFNHEAEDLFYQSSLASWK [hACE2 mimic peptide beacon (COVID19-PEB)]
binding result: binds

Reference: publication PMC8969299 (Chemical Engineering Journal, 2022)
